Like-named read-outs stand apart in the source and are kept apart here.
T1: full-length wild type recombinant human LCAT (human, UniProt P04180 25-440)
T1 construct: also called huLCAT; hLCAT
T1 sequence: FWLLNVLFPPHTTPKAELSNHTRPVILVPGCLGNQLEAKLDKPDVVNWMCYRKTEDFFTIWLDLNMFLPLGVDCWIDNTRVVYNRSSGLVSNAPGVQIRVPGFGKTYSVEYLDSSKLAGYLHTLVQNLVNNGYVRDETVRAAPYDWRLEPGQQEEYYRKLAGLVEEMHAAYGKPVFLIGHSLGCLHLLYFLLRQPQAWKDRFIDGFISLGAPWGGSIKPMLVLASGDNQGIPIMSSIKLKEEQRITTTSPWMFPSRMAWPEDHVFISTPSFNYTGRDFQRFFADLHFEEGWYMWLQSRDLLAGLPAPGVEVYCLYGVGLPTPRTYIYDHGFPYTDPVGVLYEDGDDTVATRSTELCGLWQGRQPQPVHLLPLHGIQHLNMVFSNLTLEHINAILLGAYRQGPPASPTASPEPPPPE

T2: full-length wild type recombinant human LCAT protein that carries a His and Flag tag at the C-terminus (human, UniProt P04180 25-440)
T2 sequence: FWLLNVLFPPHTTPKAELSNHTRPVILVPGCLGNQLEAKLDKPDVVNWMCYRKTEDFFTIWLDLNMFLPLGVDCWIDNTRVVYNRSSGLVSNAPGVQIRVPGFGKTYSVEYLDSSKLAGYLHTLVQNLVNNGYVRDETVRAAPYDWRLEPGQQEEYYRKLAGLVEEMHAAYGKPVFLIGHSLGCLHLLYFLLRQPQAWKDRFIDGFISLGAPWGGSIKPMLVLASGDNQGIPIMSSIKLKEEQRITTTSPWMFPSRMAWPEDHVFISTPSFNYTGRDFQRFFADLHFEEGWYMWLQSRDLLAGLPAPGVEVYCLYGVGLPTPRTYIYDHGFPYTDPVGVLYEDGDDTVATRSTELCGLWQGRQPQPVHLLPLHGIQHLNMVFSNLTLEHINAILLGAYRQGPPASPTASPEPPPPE

T3: full-length wild type recombinant cynomolgus LCAT (cynomolgus monkey, UniProt Q08758 25-440 (Papio anubis entry))
T3 construct: also called cyno LCAT
T3 chain: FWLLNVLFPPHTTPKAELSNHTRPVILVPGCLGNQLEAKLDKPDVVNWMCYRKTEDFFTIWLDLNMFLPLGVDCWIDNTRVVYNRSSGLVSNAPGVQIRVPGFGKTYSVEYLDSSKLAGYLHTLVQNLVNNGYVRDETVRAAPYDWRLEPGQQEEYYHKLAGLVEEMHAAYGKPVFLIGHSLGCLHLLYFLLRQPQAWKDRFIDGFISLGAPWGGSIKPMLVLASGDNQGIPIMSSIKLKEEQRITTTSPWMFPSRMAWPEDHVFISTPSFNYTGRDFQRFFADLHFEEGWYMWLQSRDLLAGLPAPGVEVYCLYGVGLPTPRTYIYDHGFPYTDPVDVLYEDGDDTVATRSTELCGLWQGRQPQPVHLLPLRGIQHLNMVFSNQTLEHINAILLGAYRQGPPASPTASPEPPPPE


Legend:
[1] = molecular target: T1, full-length wild type recombinant human …; assay: BIAcore 3000 SPR, antibody captured on goat anti-human IgG, LCAT as analyte, 1:1 fit
Experimental: (§1) Biosensor analysis was conducted at 25° C. in a HBS-EP buffer system (10 mM HEPES pH 7.4, 150 mM NaCl, 3 mM EDTA, 0.005% Surfactant P20) using a Biacore 3000 optical biosensor equipped with a CMS sensor chip. All reagents were kept at 4° C. prior to injection.
(§2) Goat anti-human IgG (30 mg/mL) (abcam) was immobilized (10000 RU) over flow cells 1-4 via standard amine coupling and followed by ethanolamine blocking. Each antibody (150 ng/mL) was captured (−100 RU) on a separate flow cell and analyzed simultaneously in sets of three. Flow cell 1 was used as the reference flow cell.
(§3) The data were fit to a 1:1 binding model (global Rmax) via Scrubber2 software. In some cases the highest concentrations were omitted to provide a better fit to the 1:1 binding model.

[2] = molecular target: T2, full-length wild type recombinant human …; assay: cell-based or functional assay
[3] = molecular target: T3, full-length wild type recombinant …; assay: BIAcore 3000 SPR, antibody captured on goat anti-human IgG, LCAT as analyte, 1:1 fit
Experimental: as §1, §2, §3

[4] = molecular target: T3, full-length wild type recombinant …; assay: BIAcore 3000 SPR, antibody captured on goat anti-human IgG, LCAT as analyte; cyno LCAT
Experimental: as §1, §2, §3

[5] = molecular target: T1, full-length wild type recombinant human …; assay: cell-based or functional assay
[6] = molecular target: T3, full-length wild type recombinant …; assay: Binding Affinity (nM), Table 10; method not restated (BIAcore of Example 3 presumed)
[7] = molecular target: T1, full-length wild type recombinant human …; assay: as above
[8] = molecular target: T1, full-length wild type recombinant human …; assay: cell-based or functional assay; remark: listed apart in the source
[9] = molecular target: T3, full-length wild type recombinant …; assay: Binding Affinity (nM), Table 12; method not restated (BIAcore of Example 3 presumed)
[10] = molecular target: T1, full-length wild type recombinant human …; assay: as above
[11] = molecular target: T1, full-length wild type recombinant human …; assay: cell-based or functional assay; remark: listed apart in the source

| Binder | Kd [9] | Kd [10] | Activity [11] | further results |
| --- | --- | --- | --- | --- |
| 18E5 (antibody, human IgG2, kappa, V domains shown) VH: not shown VL: EIVLTQSPGTLSLSPGERATLSCRASQSVSGSYLTWYQQKPGQAPRLLIYGASSRATGIPDRFSGSGSGTDFTLTISRLEPEDFAMYYCQQYGGSPPFTFGPGTKVDIKR |  |  |  | Kd [1]: 1.01 nM; LCAT Activity (fold the vehicle control activity) [2]: 2.5 fold |
| 25B7 (antibody, V domains shown, The heavy chain entry ends after CH1 with a tag remnant) VH: EVQLLESGGGLVQPGGSLRLSCAASGFTFRSYAMNWVRQAPGKGLEWVSTISGSGGSTHYADSVKGRFTISRDNSKNTLYLQLSSLRAEDTAVYYCAKGIAAADYYYYYGMDVWGQGTTVTVSS VL: SYEVTQPPSVSVSPGQTASITCSGDKLGDKNACWYQQRPGQSPVLVIYQNSKRPSGIPERFSGSNSGNTATLTISGTQAMDEADYYCQAWDSSTVFGGGTRLEVLG |  |  |  | Kd [3]: 1.02 nM; Kd [1]: 2.24 nM; Kd [4]: 1.2 nM |
| 27C3 (antibody, human IgG2, lambda, V domains shown, Incompletely N-glycosylated at Asn40 (AHo) of CDRH1) VH: QVQLQESGPGLVKPSQTLSLTCTVSGASISSGGYNWSWIRQHPGKGLEWIGYIYYSGSTYYNPSLKSRVTISVDTSKNQFSLKLSSVTAADTAVYYCARERGYCSSTSCSRVMDVWGQGTTVTVSS VL: SSELTQDPAVSVALGQTVRITCQGDSLRSYYASWYQQKPGQAPVLVIYGKNNRPSGIPDRFSGSSSGNTASLTITGAQAEDEADYYCNSRDNIGNHQVFGGGTKLTVLG |  |  |  | Kd [3]: 128 nM; Kd [1]: 1.15 nM; Activity [5]: 100%; Kd [6]: 128 nM; Kd [7]: 1.15 nM; EC50 (read off the curve) [8]: ~4 mgAb/mL Plasma |
| 27C3(S42A, S131T, M136I/N107G) (antibody, human IgG2, lambda, V domains shown, IgG2 lambda; The mutations are already in the entries) VH: QVQLQESGPGLVKPSQTLSLTCTVSGASISSGGYNWAWIRQHPGKGLEWIGYIYYSGSTYYNPSLKSRVTISVDTSKNQFSLKLSSVTAADTAVYYCARERGYCSSTTCSRVIDVWGQGTTVTVSS VL: SSELTQDPAVSVALGQTVRITCQGDSLRSYYASWYQQKPGQAPVLVIYGKNNRPSGIPDRFSGSSSGNTASLTITGAQAEDEADYYCGSRDNIGNHQVFGGGTKLTVLG | 226 nM | 2.8 nM | 65% |  |
| 27C3(S42A, S131T, V135I, M136I/N107G) (antibody, human IgG2, lambda, V domains shown, IgG2 lambda; The mutations are already in the entries) VH: QVQLQESGPGLVKPSQTLSLTCTVSGASISSGGYNWAWIRQHPGKGLEWIGYIYYSGSTYYNPSLKSRVTISVDTSKNQFSLKLSSVTAADTAVYYCARERGYCSSTTCSRIIDVWGQGTTVTVSS VL: SSELTQDPAVSVALGQTVRITCQGDSLRSYYASWYQQKPGQAPVLVIYGKNNRPSGIPDRFSGSSSGNTASLTITGAQAEDEADYYCGSRDNIGNHQVFGGGTKLTVLG | 226 nM | 2.8 nM | 70% |  |

Further lines, with some results ahead:

| Kd [9] | Kd [10] | Activity [11] | Binder | further results |
| --- | --- | --- | --- | --- |
| 8 nM | 0.5 nM | 83% | 27C3(S42A, S133T, M136I/N107G, I112V) (antibody, human IgG2, lambda, V domains shown, IgG2 lambda; The mutations are already in the entries) VH: QVQLQESGPGLVKPSQTLSLTCTVSGASISSGGYNWAWIRQHPGKGLEWIGYIYYSGSTYYNPSLKSRVTISVDTSKNQFSLKLSSVTAADTAVYYCARERGYCSSTSCTRVIDVWGQGTTVTVSS VL: SSELTQDPAVSVALGQTVRITCQGDSLRSYYASWYQQKPGQAPVLVIYGKNNRPSGIPDRFSGSSSGNTASLTITGAQAEDEADYYCGSRDNVGNHQVFGGGTKLTVLG |  |
| 88 nM | 34 nM | 70% | 27C3(S42A, S131T, V135I, M136I/N107G, I112V) (antibody, human IgG2, lambda, V domains shown, IgG2 lambda; The mutations are already in the entries) VH: QVQLQESGPGLVKPSQTLSLTCTVSGASISSGGYNWAWIRQHPGKGLEWIGYIYYSGSTYYNPSLKSRVTISVDTSKNQFSLKLSSVTAADTAVYYCARERGYCSSTTCSRIIDVWGQGTTVTVSS VL: SSELTQDPAVSVALGQTVRITCQGDSLRSYYASWYQQKPGQAPVLVIYGKNNRPSGIPDRFSGSSSGNTASLTITGAQAEDEADYYCGSRDNVGNHQVFGGGTKLTVLG |  |
| 181 nM | 1.3 nM | 89% | 27C3(S42A, S131T, M136I/N107G, I112V) (antibody, human IgG2, lambda, V domains shown, IgG2 lambda; The mutations are already in the entries) VH: QVQLQESGPGLVKPSQTLSLTCTVSGASISSGGYNWAWIRQHPGKGLEWIGYIYYSGSTYYNPSLKSRVTISVDTSKNQFSLKLSSVTAADTAVYYCARERGYCSSTTCSRVIDVWGQGTTVTVSS VL: SSELTQDPAVSVALGQTVRITCQGDSLRSYYASWYQQKPGQAPVLVIYGKNNRPSGIPDRFSGSSSGNTASLTITGAQAEDEADYYCGSRDNVGNHQVFGGGTKLTVLG |  |
| 198 nM | 3 nM | 69% | 27C3(S42A, S131T, V135I, M136I/I112V) (antibody, human IgG2, lambda, V domains shown, IgG2 lambda; The mutations are already in the entries) VH: QVQLQESGPGLVKPSQTLSLTCTVSGASISSGGYNWAWIRQHPGKGLEWIGYIYYSGSTYYNPSLKSRVTISVDTSKNQFSLKLSSVTAADTAVYYCARERGYCSSTTCSRIIDVWGQGTTVTVSS VL: SSELTQDPAVSVALGQTVRITCQGDSLRSYYASWYQQKPGQAPVLVIYGKNNRPSGIPDRFSGSSSGNTASLTITGAQAEDEADYYCNSRDNVGNHQVFGGGTKLTVLG |  |
| 62 nM | 0.4 nM | 73% | 27C3(S42A, S133T, M136I/N107G) (antibody, human IgG2, lambda, V domains shown, IgG2 lambda; The mutations are already in the entries) VH: QVQLQESGPGLVKPSQTLSLTCTVSGASISSGGYNWAWIRQHPGKGLEWIGYIYYSGSTYYNPSLKSRVTISVDTSKNQFSLKLSSVTAADTAVYYCARERGYCSSTSCTRVIDVWGQGTTVTVSS VL: SSELTQDPAVSVALGQTVRITCQGDSLRSYYASWYQQKPGQAPVLVIYGKNNRPSGIPDRFSGSSSGNTASLTITGAQAEDEADYYCGSRDNIGNHQVFGGGTKLTVLG |  |
| 198 nM | 3 nM | 65% | 27C3(S42A, S131T, M136I/I112V) (antibody, human IgG2, lambda, V domains shown, IgG2 lambda; The mutations are already in the entries) VH: QVQLQESGPGLVKPSQTLSLTCTVSGASISSGGYNWAWIRQHPGKGLEWIGYIYYSGSTYYNPSLKSRVTISVDTSKNQFSLKLSSVTAADTAVYYCARERGYCSSTTCSRVIDVWGQGTTVTVSS VL: SSELTQDPAVSVALGQTVRITCQGDSLRSYYASWYQQKPGQAPVLVIYGKNNRPSGIPDRFSGSSSGNTASLTITGAQAEDEADYYCNSRDNVGNHQVFGGGTKLTVLG |  |
| 190 nM | 1.2 nM | 70% | 27C3(S42A, M136I/N107G, I112V) (antibody, human IgG2, lambda, V domains shown, IgG2 lambda; The mutations are already in the entries) VH: QVQLQESGPGLVKPSQTLSLTCTVSGASISSGGYNWAWIRQHPGKGLEWIGYIYYSGSTYYNPSLKSRVTISVDTSKNQFSLKLSSVTAADTAVYYCARERGYCSSTSCSRVIDVWGQGTTVTVSS VL: SSELTQDPAVSVALGQTVRITCQGDSLRSYYASWYQQKPGQAPVLVIYGKNNRPSGIPDRFSGSSSGNTASLTITGAQAEDEADYYCGSRDNVGNHQVFGGGTKLTVLG |  |
| 88 nM | 0.3 nM | 46% | 27C3(S42A, S133T, M136I/I112V) (antibody, human IgG2, lambda, V domains shown, IgG2 lambda; The mutations are already in the entries) VH: QVQLQESGPGLVKPSQTLSLTCTVSGASISSGGYNWAWIRQHPGKGLEWIGYIYYSGSTYYNPSLKSRVTISVDTSKNQFSLKLSSVTAADTAVYYCARERGYCSSTSCTRVIDVWGQGTTVTVSS VL: SSELTQDPAVSVALGQTVRITCQGDSLRSYYASWYQQKPGQAPVLVIYGKNNRPSGIPDRFSGSSSGNTASLTITGAQAEDEADYYCNSRDNVGNHQVFGGGTKLTVLG |  |

— patent US20150284471A1 (Amgen, published 2015)
